Columns and labels:
[1] = molecular target: ExsA-L117R (Pseudomonas aeruginosa) (UniProt P26993)
[2] = molecular target: the molecule itself; assay: crystal structure; hanging-drop vapor diffusion at 25°C; 1.6M MgSO4, 0.1M MES pH 6.5, 0.1M EGTA; dimers A/A' and B/B'' made by crystallographic two-fold axes

Molecule	activation of transcription in vitro at 16, 32 and 64 nM protein, against wild-type ExsA [1] [fold]	binding result [2]
ExsA-L117R (from UniProt P26993 1-278) (natural protein)	10	
ExsA amino-terminal domain (ExsA-NTD), amino acids 2-178 (domain or fragment, thermolysin product, amino acids 2-178 by LC-MS; A selenomethionine-substituted sample was also made (E. coli BL21(DE3), minimal medium), crystallised under identical conditions and used for phasing; Residues 2-10 and 166-178 (chain A) and 2-9 and 167-178 (chain B) gave no density; also called regulatory domain of ExsA; ExsA N-terminal domain protein; source: E. coli BL21(DE3) CodonPlus RIL, …) QGAKSLGRKQITSCHWNIPTFEYRVNKEEGVYVLLEGELTVQDIDSTFCLAPGELLFVRRGSYVVSTKGKDSRILWIPLSAQFLQGFVQRFGALLSEVERCDEPVPGIIAFAATPLLAGCVKGLKELLVHEHPPMLACLKIEELLMLFAFSPQGPLLMSVLRQLSNRHVERLQLFME		binds
